{"source": "paper PMC12510318", "experiment_in_all_cases": "EMSA", "conditions_in_all_cases": "EMSA: 6 ng 32P-satBaMV riboprobe, 2 U RNasin, 15 ul CAPS buffer (pH and salt not given), 20 min on ice; 4-12% NuPAGE in MES buffer at 4 C", "key": {"[1]": {"tested_on": "rP20 WT (bamboo mosaic virus satellite RNA (satBaMV))"}, "[2]": {"tested_on": "rFIB D227A (Nicotiana benthamiana)"}, "[3]": {"tested_on": "rFIB K134A (Nicotiana benthamiana)"}, "[4]": {"tested_on": "rFIB (NbFIB2) WT (Nicotiana benthamiana)"}, "[5]": {"tested_on": "rFIB triple mutant (Nicotiana benthamiana)"}, "[6]": {"tested_on": "rFIB K256A (Nicotiana benthamiana)"}}, "data": [{"substance": "satBaMV riboprobe", "values": [{"measurement": "Kd", "setting": "[1]", "value": 32, "unit": "nM"}, {"measurement": "Kd", "setting": "[2]", "value": 350, "unit": "nM"}, {"measurement": "Kd", "setting": "[3]", "value": 140, "unit": "nM"}, {"measurement": "Kd", "setting": "[4]", "value": 50, "unit": "nM"}, {"measurement": "Kd", "setting": "[5]", "value": 1230, "unit": "nM"}, {"measurement": "Kd", "setting": "[6]", "value": 350, "unit": "nM"}]}]}
